Test results published in paper PMC11480441, “Structure of tetrameric forms of the serotonin-gated 5-HT3A receptor ion channel” (The EMBO Journal, 2024).
Where “and” joins values, the source holds several entries; their conditions need not be identical. Identical values can stand only once.

Legend:
[1] = molecular target: the molecule itself; experiment: native gel or EMSA; blue native PAGE, 5-20% gradient gel, 4 °C; 10 ug solubilised 5-HT3AR incubated 30 min with 0 to 10 mM SDS; BSA oligomers as size markers
[2] = molecular target: the molecule itself; experiment: cryo-EM structure; single-particle cryo-EM of purified 5-HT3AR in saposin lipoprotein (Salipro) with brain polar lipids, 25 mM HEPES, 125 mM NaCl, pH 7.4; apo, with serotonin (uncaged RuBi-5-HT, 200 uM), and with 100 uM 5-HT + 2 mM CaCl2; 2D and 3D classification without imposed symmetry

B1: murine wild-type serotonin 5-HT3A receptor (receptor, mouse (murine), UniProt P23979 24-489, looked up)
chain: SRRRATQARDTTQPALLRLSDHLLANYKKGVRPVRDWRKPTTVSIDVIMYAILNVDEKNQVLTTYIWYRQYWTDEFLQWTPEDFDNVTKLSIPTDSIWVPDILINEFVDVGKSPNIPYVYVHHRGEVQNYKPLQLVTACSLDIYNFPFDVQNCSLTFTSWLHTIQDINITLWRSPEEVRSDKSIFINQGEWELLEVFPQFKEFSIDISNSYAEMKFYVIIRRRPLFYAVSLLLPSIFLMVVDIVGFCLPPDSGERVSFKITLLLGYSVFLIIVSDTLPATAIGTPLIGVYFVVCMALLVISLAETIFIVRLVHKQDLQRPVPDWLRHLVLDRIAWILCLGEQPMAHRPPATFQANKTDDCSGSDLLPAMGNHCSHVGGPQDLEKTPRGRGSPLPPPREASLAVRGLLQELSSIRHFLEKRDEMREVARDWLRVGYVLDRLLFRIYLLAVLAYSITLVTLWSIWHYS
modifications: densities resembling N-linked glycosylation at N82, N148 and N164
notes: 5-HT3A receptor subunit, mouse, wild type, full length; The same subunit is found as a pentamer and as a tetramer (4 or 5 copies); The intracellular domain is not modelled in the tetramer structures; also called 5-HT3R; 5-HT3AR-Salipro; source: purified (C12E9 solubilisation, Streptactin, SEC) and reconstituted in saposins with porcine brain polar lipids; also unpurified in cell-derived plasma …
With B1 the “stoichiometry N” value [1] was 3 and 2 and the “stoichiometry N” value [2] was 4 and 5.
